For this assay, the target named is T1, TDP-43 1-206 amino acid fragment, containing the RRM1 domain (Homo sapiens (Human), UniProt Q13148 1-206).
T1 construct: Spotted on membranes for the dot blot; also called amino acids 1-206 of TDP-43
The experiment in a line: dot blot, scFv-conditioned medium, anti-myc HRP. The procedure:
Example 6: Anti-TDP-43 Antibodies Having an scFv Format Detect TDP-43 RRM1 Domain Different concentrations of TDP-43 1-206 amino acid fragment, containing the RRM1 domain were loaded onto membranes by dot blot. Membranes were incubated overnight with media from Hek293 cells that had been transfected with pScFv9 expression plasmid containing the nucleic acids encoding E6_VH1Vk9 and E6_VH7Vk9. The myc signal was detected using anti-myc HRP antibody incubation.

T1 sequence (Q13148 1-206): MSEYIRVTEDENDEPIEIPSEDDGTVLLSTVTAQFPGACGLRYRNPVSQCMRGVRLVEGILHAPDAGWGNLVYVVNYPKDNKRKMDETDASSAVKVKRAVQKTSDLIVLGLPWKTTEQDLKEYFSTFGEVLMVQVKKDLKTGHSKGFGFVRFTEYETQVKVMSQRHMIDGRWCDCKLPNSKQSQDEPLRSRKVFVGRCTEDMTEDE

B1: E6_VH1Vκ9 scFv antibody (scFv)
scFv: LQESGGGLVQPGGSMKLSCVASGFTSSNYWLNWVRQSPERGLEWVAEIRLKSNNYATNYAESVKGRFTISRDDSKSSVYLQVNNLRAEDTGIYYCTRSTARATPYYFDYWGQGTTVTVSSGGGGSGGGGSGGGGSDIELTQSPSSLAVSAGEKVTMSCKSSQSLLNSRARKNFLTWYQQKPGQSPKLLIYWASTRESGVPDRFTGSGSGTDFTLTISSVQAEDLAVYYCKQSYNLYTFGGGTKLEEQKLISEEDLN
notes: The signal is left out here; Used as conditioned medium or inside transfected cells; also called E6_VH1Vk9; VH1Vk9
As for B1, the binding result was “binds”.

B2: E6_VH7Vκ9 scFv antibody (scFv)
scFv: LQQSGGGLVQPGGSMKLSCVASGFTSSNYWLNWVRQSPERGLEWVAEIRLKSNNYATNYAESVKGRFTISRDDSKSSVYLQVNNLRAEDTGIYYCTRSTARATPYYFDYWGQGTTVTVSSGGGGSGGGGSGGGGSDIELTQSPSSLAVSAGEKVTMSCKSSQSLLNSRARKNFLTWYQQKPGQSPKLLIYWASTRESGVPDRFTGSGSGTDFTLTISSVQAEDLAVYYCKQSYNLYTFGGGTKLEEQKLISEEDLN
notes: The signal is left out here; It differs from E6_VH1Vκ9 by one residue (Q instead of E); also called E6_VH7Vk9; VH7Vk9
On to B2, for which the binding result is listed as “binds”.

These data come from patent US10202443 (UNIVERSIT LAVAL, dated 2019).
